# In paper PMC8349882 (Molecular cell, 2021):
# B1: GLR3.4-S1S2 (isolated ligand-binding domain of GLR3.4) (domain or fragment, Arabidopsis thaliana)
# chain: KPLRIGVPNRVSYTDYVSKDKNPPGVRGYCIDVFEAAIELLPYPVPRTYILYGDGKRNPSYDNLVNEVVADNFDVAVGDITIVTNRTRYVDFTQPFIESGLVVVAPVKEAGTIEGIDSLVTSNEPIGVQDGTFARNYLINELNILPSRIVPLKDEEQYLSALQRGPNAGGVAAIVDELPYIEVLLTNSNCKFRTVGQEFTRTGWGFAFQRDSPLAVDMSTAILQLSEEGELEKIHRKWLNYKHECS
# Molecular target: the molecule itself
# Test: crystal structure
protein,measurement,value
B1,stoichiometry N,2
